Test results taken from US20200010567A1 (NEURIMMUNE, published 2020).

Tests used:
[1] = molecular target: T1, GA10: H-(GA)10HHHHHH-NH2 (C-terminal amide); assay: sandwich ELISA, peptide captured by anti-His antibody
T1 peptide: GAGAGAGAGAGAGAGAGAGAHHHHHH
Text: (§1) In brief, His-tagged dipeptide repeat protein peptides were synthesized and purified by Schafer-N(Copenhagen, Denmark): GA₂₀: H-(GA)₂₀HHHHHH-NH₂; GA₁₀: H-(GA)₁₀HHHHHH-NH₂; GA₆: H-(GA)₆HHHHHH-NH₂; GA₅: H-(GA)₅HHHHHH-NH₂; GA₄: H-(GA)₄HHHHHH-NH₂; GA₃: H-(GA)₃HHHHHH-NH₂; GA₂: H-(GA)₂HHHHHH-NH₂; GP₂₀: H-(GP)₂₀HHHHHH-NH₂; GP₁₀: H-(GP)₁₀HHHHHH-NH₂; GP₆: H-(GP)₆HHHHHH-NH₂; GP₅: H-(GP)₅HHHHHH-NH₂; GP₄: H-(GP)₄HHHHHH-NH₂; GP₃: H-(GP)₃HHHHHH-NH₂; GP₂: H-(GP)₂HHHHHH-NH₂. 96-well microplates (Corning Incorporated, Corning, USA) were coated with monoclonal mouse anti-His tag antibody (Takara Bio Europe/Clontech, Saint-Germain-en-Laye, France) at a concentration of 10 μg/ml in coating buffer (15 mM Na₂CO₃, 35 mM NaHCO₃, pH 9.42) overnight at 4° C. Non-specific binding sites were blocked for 1 h at room temperature with PBS/0.1% Tween®-20 containing 2% BSA (Sigma-Aldrich, Buchs, Switzerland). After a washing step, His-tagged C9orf72 DPR protein peptides at equal concentration of either 1 μM or 5 μM in PBS (pH 7.4) were added for target-trapping by the anti-His tag antibody for 1 h at room temperature. […] Antibody binding to DPR protein peptides was detected by a donkey anti-human IgG Fcγ-specific antibody conjugated with HRP at 1:5000 dilution (Jackson ImmunoResearch Laboratories, Inc., West Grove, USA) for 1 h at RT. Binding was determined by measurement of HRP activity in a standard colorimetric assay. EC₅₀ values were estimated by non-linear regression using GraphPad Prism software (San Diego, USA).

[2] = molecular target: T2, GA20: H-(GA)20HHHHHH-NH2 (C-terminal amide); assay: as above
T2 peptide: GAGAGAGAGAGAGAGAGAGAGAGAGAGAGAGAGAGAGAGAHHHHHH
Text: as §1

[3] = molecular target: T3, aggregated C9orf72 (GA)20 DPR protein peptide preparation (C-terminal amide); assay: indirect ELISA, coated preparation 5 ug/ml
T3 construct: also called aggregated (GA)20; amyloid-fibril like aggregated (GA)20
T3 peptide: T2 peptide
Procedure: (§2) 96-well microplates (Corning Incorporated, Corning, USA) were coated with monomeric and aggregated (GA)₂₀ DPR protein peptide preparations at a concentration of 5 μg/ml in coating buffer (15 mM Na₂CO₃, 35 mM NaHCO₃, pH 9.42). Non-specific binding sites were blocked for 1 h at room temperature with PBS/0.1% Tween®-20 containing 2% BSA (Sigma-Aldrich, Buchs, Switzerland). Primary antibodies were diluted to the indicated concentrations and incubated 1 h at room temperature, followed by incubation with a donkey anti-human IgG Fcγ-specific antibody conjugated with HRP (Jackson ImmunoResearch Laboratories, Inc., West Grove, USA). Binding was determined by measurement of HRP activity in a standard colorimetric assay. EC₅₀ values were estimated by non-linear regression using GraphPad Prism software (San Diego, USA).

[4] = molecular target: T4, monomeric C9orf72 (GA)20 DPR protein peptide preparation (C-terminal amide); assay: indirect ELISA, coated preparation 5 ug/ml
T4 construct: also called monomeric (GA)20
T4 peptide: T2 peptide
Procedure: as §2

[5] = molecular target: T5, GA6: H-(GA)6HHHHHH-NH2; assay: indirect ELISA, coated His-tagged peptide
T5 peptide: H-GAGAGAGAGAGAHHHHHH-NH2
Text: In brief, dipeptide repeat proteins were synthesized and purified by Schafer-N (Copenhagen, Denmark): GA₂₀: H-(GA)₂₀HHHHHH-NH₂; GA₁₀: H-(GA)₁₀HHHHHH-NH₂; GA₆: H-(GA)₆HHHHHH-NH₂; GA₅: H-(GA)₅HHHHHH-NH₂; GA₄: H-(GA)₄HHHHHH-NH₂; GA₃: H-(GA)₃HHHHHH-NH₂; GA₂: H-(GA)₂HHHHHH-NH₂; GP₂₀: H-(GP)₂₀HHHHHH-NH₂; GP₁₀: H-(GP)₁₀HHHHHH-NH₂; GP₆: H-(GP)₆HHHHHH-NH₂; GP₅: H-(GP)₅HHHHHH-NH₂; GP₄: H-(GP)₄HHHHHH-NH₂; GP₃: H-(GP)₃HHHHHH-NH₂; GP₂: H-(GP)₂HHHHHH-NH₂. GR₂₀: H-(GR)₂₀HHHHHH-NH₂; GR₁₀: H-(GR)₁₀HHHHHH-NH₂; GR₆: H-(GR)₆HHHHHH-NH₂; GR₅: H-(GR)₅HHHHHH-NH₂; GR₄: H-(GR)₄HHHHHH-NH₂; GR₃: H-(GR)₃HHHHHH-NH₂; GR₂: H-(GR)₂HHHHHH-NH₂; PA₂₀: H-(PA)₂₀HHHHHH-NH₂; PA₁₀: H-(PA)₁₀HHHHHH-NH₂; PA₆: H-(PA)₆HHHHHH-NH₂; PA₅: H-(PA)₅HHHHHH-NH₂; PA₄: H-(PA)₄HHHHHH-NH₂; PA₃: H-(PA)₃HHHHHH-NH₂; PA₂: H-(PA)₂HHHHHH-NH₂; PR₂₀: H-(PR)₂₀HHHHHH-NH₂; PR₁₀: H-(PR)₁₀HHHHHH-NH₂; PR₆: H-(PR)₆HHHHHH-NH₂; PR₅: H-(PR)₅HHHHHH-NH₂; PR₄: H-(PR)₄HHHHHH-NH₂; PR₃: H-(PR)₃HHHHHH-NH₂; PR₂: H-(PR)₂HHHHHH-NH₂. 96-well microplates (Corning Incorporated, Corning, USA) were coated with dipeptide repeat protein peptides at a concentration of 50 μg/ml in coating buffer (15 mM Na₂CO₃, 35 mM NaHCO₃, pH 9.42). Non-specific binding sites were blocked for 1 h at room temperature with PBS/0.1% Tween®-20 containing 2% BSA (Sigma-Aldrich, Buchs, Switzerland). Primary antibodies were diluted to the indicated concentrations and incubated 1 h at room temperature, followed by incubation with a donkey anti-human IgG Fcγ-specific antibody conjugated with HRP (Jackson ImmunoResearch Laboratories, Inc., West Grove, USA). Binding was determined by measurement of HRP activity in a standard colorimetric assay. EC₅₀ values were estimated by non-linear regression using GraphPad Prism software (San Diego, USA).

B1: NI-308.15O7 (antibody, V domains shown)
VH: QVQLVESGGGVVQPGRSLRLSCAASGFTFSNHAMHWVRQAPGKGLEWVAVISYDGENTYYADSIEGRFTISRDNFKNTLFLQMYSLTADDTAMYFCARGGRRGHFTSYYLDYWGQGTLVTVSS
VL: CDIQMTQSPSSLSASVGDRVTITCRASQNIDKYLNWYQQIPGKAPKLLIYAASSLHSGVPSRFSGSGSGTDFSLTISSLQPEDFAIYYCQQSYSSFRTFGQGTKLEIK
EC50 [1]: > 400 nM
EC50 [2]: 9 nM
EC50 [3]: 0.78 nM
EC50 [4]: 0.53 nM

B2: NI-308.28G1 (antibody, V domains shown)
VH: QVQLQESGPRLVKPSETLSLTCTVAGGSVNSYYWTWIQQSPGKGLEWLGRIYIAGRTNYNPSLTSRIALSVDTSRNQLSLKLTSVTAADTAIYYCARWGAESGDYYYGVDVWGPGTLVTVSS
VL: EIVMTQSPLSLPVTPGEPASISCKSSEGLLHSNGYTYLDWYLQKPGQAPQLLIFLASNRAAGVPDRFSGSGSGTDFTLKISRVEAEDVGVYYCMQAIQSPWTFGPGTKVEIK
notes: Recombinant complete human IgG1, kappa
EC50 [1]: 0.46 nM
EC50 [2]: 0.4 nM

B3: NI-308.45C2 (antibody, V domains shown)
VH: QLQLQESGPGLVKPSQILSLTCAISGDSVFSNSAAWNWIRQSPSRGLEWLGRTYYRSKWDNDYAPSVKSRISINPDTSKNQFSLQLNSVTPEDTAVYYCAREVAYCGGDCYSVSFDYWGQGTLVTVSS
VL: not shown
notes: as for B2
EC50 [5]: > 200 nM

B4: NI-308.5G2 (antibody, V domains shown)
VH: EVQLVQSGADLRNPGASVTVSCTASGYHFADNAINWLRQAPGQRLEWMGWINIYSGNTKYSQNFQGRVTFTRNTSASTAFMHLRSLRSEDTAVYFCARDPDSSGYYLPYFDYWGQGTLVTVSS
VL: DIQLTQSPDSLTLSLGERATINCKSSQSVFYNSNNKNYLAWYQQKPGQPPKLLMYWASTRESGVTDRFSGSGSGTDFTLTITNLQAEDVAVYYCQQFYSSPLTFGGGTKVEIK
notes: as for B2
EC50 [5]: > 200 nM

B5: NI-308.6B11 (antibody, V domains shown)
VH: EVQLVQSGAEVKRPGASVKVSCKVSGYTLTELSMHWVRQAPGKGLEWMGGFDPEDGETVYAQKFQGRVTMTEDTSTDTAYMELSSLRSEDTALYHCATYGSSWHWNEGNEGSYYFDYWGQGTLVTVSS
VL: CDIQMTQSPSSLSASVGDRVTITCQASQDISIYLNWYQQKPGKAPKLLIYDASNLETGVPSRFSGSGSGTDFTFTISGLQPEDVARYYCQQYDDLPITFGQGTRLEIK
notes: as for B2
EC50 [5]: > 200 nM

B6: NI-308.18F7 (antibody, V domains shown)
VH: QVQLQESGPGLVKPSETLSVTCTVSGGSINDYYWNWIRQPAGKGLEWIGRIYASGTINYNPSLQSRVTMSIDTSKNQFSLDLISVSAADTAVYYCARWGQVVGDYYYGMDVWGQGTTVTVSS
VL: EIVLTQSPLSLSVTPGEPASISCKSSQSLQHTNGYNYLDWYLLKPGQSPQLLIFLTSNRASGVPDRFSGSGSGTNFTLKISRVEAEDVGVYYCMEGIQLWTFGQGTKLEIK
notes: as for B2
EC50 [5]: > 200 nM
EC50 [1]: 0.34 nM
EC50 [2]: 0.45 nM
EC50 [3]: 0.89 nM
EC50 [4]: 0.87 nM
